The source of these data is article PMC8497620, “Structure and inhibition of Cryptococcus neoformans sterylglucosidase to develop antifungal agents” (Nature Communications, 2021).

Chain of C. neoformans Sgl1 (J9W473 entry or part of it): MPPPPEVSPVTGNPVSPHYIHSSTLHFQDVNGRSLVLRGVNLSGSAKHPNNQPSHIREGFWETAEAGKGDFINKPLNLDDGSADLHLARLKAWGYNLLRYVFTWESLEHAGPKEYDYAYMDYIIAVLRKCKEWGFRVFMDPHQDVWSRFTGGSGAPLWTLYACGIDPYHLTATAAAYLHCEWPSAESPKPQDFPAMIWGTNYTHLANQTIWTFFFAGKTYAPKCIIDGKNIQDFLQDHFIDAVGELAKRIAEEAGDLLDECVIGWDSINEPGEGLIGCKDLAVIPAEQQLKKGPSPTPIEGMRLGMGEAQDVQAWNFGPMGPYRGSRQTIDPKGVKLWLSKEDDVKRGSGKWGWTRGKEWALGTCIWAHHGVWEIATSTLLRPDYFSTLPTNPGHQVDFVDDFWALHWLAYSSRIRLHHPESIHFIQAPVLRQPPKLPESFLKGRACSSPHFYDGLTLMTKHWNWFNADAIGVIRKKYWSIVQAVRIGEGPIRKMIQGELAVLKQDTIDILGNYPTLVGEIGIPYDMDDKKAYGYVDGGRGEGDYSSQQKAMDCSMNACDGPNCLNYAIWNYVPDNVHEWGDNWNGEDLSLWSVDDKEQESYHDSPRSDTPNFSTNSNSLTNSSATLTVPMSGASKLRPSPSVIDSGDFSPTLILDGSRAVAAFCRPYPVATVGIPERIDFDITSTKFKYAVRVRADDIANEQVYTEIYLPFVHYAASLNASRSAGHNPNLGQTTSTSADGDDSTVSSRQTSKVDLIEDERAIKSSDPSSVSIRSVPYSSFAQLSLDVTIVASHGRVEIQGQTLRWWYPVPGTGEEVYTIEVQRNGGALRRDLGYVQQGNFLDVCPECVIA

The target in the data set is C. neoformans Sgl1 (Cryptococcus neoformans var. grubii, UniProt J9W473). Description: H/D exchange mass spectrometry mapping of disordered regions. To be noted: H/D exchange MS of C. neoformans Sgl1; per peptide (amino acids Start-End, Sequence); Fig S2a. The procedure:
HDX-MS reactions were performed in a similar manner as is outlined in previous publications. HDX reactions were conducted in a final reaction volume of 50 µL with a final Sgl1 concentration of 0.6 µM (30 pmol). Exchange was carried out in triplicate for a single time point (3 s at 4 °C). Hydrogen deuterium exchange was initiated by the addition of 48 µL of D2O buffer (100 mM NaCl (20 mM pH 6.0 Bis-Tris), 90.5% D2O (V/V) to 1 µL of protein and 1 µL of H2O. Exchange was terminated by the addition of ice-cold acidic quench buffer, resulting in a final concentration of 0.6 M guanidine-HCl and 0.9% FA post quench. Samples were immediately frozen in liquid nitrogen and stored at −80 °C. Fully deuterated samples were generated by first denaturing the protein in 2 M guanidine for 5 min at 20 °C. Following denaturing, 48 µL of D2O buffer was added to the denatured protein and allowed to incubate for 5 min at 20 °C before quenching. Samples were flash frozen and stored at −80 °C until injection onto the ultra-performance liquid chromatography (UPLC) system for proteolytic cleavage, peptide separation, and injection onto a QTOF for mass analysis.
Protein sample was rapidly thawed and injected onto a UPLC system kept in a cold box at 2 °C. The protein was run over two immobilized pepsin columns (Applied Biosystems; Porosyme 2-3131-00) and the peptides were collected onto a VanGuard Precolumn trap (Waters). The trap was eluted in line with an ACQUITY 1.7 μm particle, 100 × 1 mm^2 C18 UPLC column (Waters), using a gradient of 5–36% B (Buffer A 0.1% formic acid, Buffer B 100% acetonitrile) over 16 min. MS experiments were performed on an Impact QTOF (Bruker) and peptide identification was done by running tandem MS (MS/MS) experiments run in data-dependent acquisition mode. The resulting MS/MS dataset was analyzed using PEAKS7 (PEAKS) and a false discovery rate was set at 1% using a database of purified proteins and known contaminants. HDExaminer Software (Sierra Analytics) was used to automatically calculate the level of deuterium incorporation into each peptide. All peptides were manually inspected for correct charge state and presence of overlapping peptides. Deuteration levels were calculated using the centroid of the experimental isotope clusters, with correction for back exchange generated using the fully deuterated sample. The mass spectrometry proteomics data have been deposited to the ProteomeXchange Consortium via the PRIDE partner repository[31] with the dataset identifier PXD024981.
For the substance AASLNASRSAGHNPNLGQTTSTSADGDD, the “% Deuterium incorporation, Average” value is on record as 99.7%.
In the case of “AASLNASRSAGHNPNLGQTTSTSADGDDSTVSSRQTSKVDL”, the “% Deuterium incorporation, Average” value was found to be 100.9%.
Regarding AIWNYVPDNVHEWGDN, the “% Deuterium incorporation, Average” value turned out to be 23.9%.
Turning to AKRIAEE, the “% Deuterium incorporation, Average” value is recorded as 1.8%.
The value for AKRIAEEAGDL was 9.2%; that for AKRIAEEAGDLLDE was 12.0%; that for ANQTIWTF was -1.6%.
The figure for ARLKAWGYNLL is 2.5%.
Regarding ASKLRPSPSV, the “% Deuterium incorporation, Average” value amounted to 76.0%.
Turning to ASKLRPSPSVIDSGDFSPTL, the “% Deuterium incorporation, Average” value is 47.3%.
As to ASKLRPSPSVIDSGDFSPTLIL, the “% Deuterium incorporation, Average” value came out at 40.9%.
The value for ATLTVPMSGASKLRPSPSVIDSGDFSPTL was 63.6%; that for AVIPAEQQL was 59.2%; that for AVIPAEQQLKKGPSPTPIEG was 30.1%.
For AVIPAEQQLKKGPSPTPIEGM, the “% Deuterium incorporation, Average” value is reported as 29.8%.
Consider AVLKQDTID, for which the “% Deuterium incorporation, Average” value was 23.0%.
As for AVLKQDTIDILGNYPTL, the “% Deuterium incorporation, Average” value is listed as 14.1%.
Turning to AVRIGEGPIRKMIQGEL, the “% Deuterium incorporation, Average” value stood at 20.2%.
As to AVRVRADDIANE, the “% Deuterium incorporation, Average” value came to 16.0%.
With AYSSRIRLHHPESIHFI, the “% Deuterium incorporation, Average” value is given as 3.1%.
The figure for CIWAHHGVWE is 1.8%; for CKDLAVIPAEQQLKKGPSPTPIEG it is 25.2%; for CVIGWDSINEPGEG it is 3.6%.
As to CVIGWDSINEPGEGLIGCKDL, the “% Deuterium incorporation, Average” value amounted to 4.2%.
Regarding DAIGVIRKKYWSIVQA, the “% Deuterium incorporation, Average” value was 36.2%.
The value for DDGSADLHL was 35.8%; that for DDKKAYGYVDGGRGEGDYSSQQKAMD was 28.0%.
As for DERAIKSSDPSS, the “% Deuterium incorporation, Average” value is 103.7%.
For the substance DITSTKF, the “% Deuterium incorporation, Average” value was 7.2%.
In the case of DITSTKFKYAVRVRA, the “% Deuterium incorporation, Average” value was 3.2%.
The figure for DITSTKFKYAVRVRADD is 4.2%; for DITSTKFKYAVRVRADDIANE it is 9.0%.
Take DTIDILGNYPTL: the “% Deuterium incorporation, Average” value came out at 14.2%.
For DVQAWNFGPMGPYRGSRQTIDPKGVKL, the “% Deuterium incorporation, Average” value was determined as 26.1%.
Take DVTIVASHGRVEIQGQT: the “% Deuterium incorporation, Average” value was 25.2%.
DVTIVASHGRVEIQGQTL: the “% Deuterium incorporation, Average” value was found to be 21.1%.
Regarding DVTIVASHGRVEIQGQTLRWWYPVPGTGE, the “% Deuterium incorporation, Average” value came out at 20.6%.
DVTIVASHGRVEIQGQTLRWWYPVPGTGEEV: the “% Deuterium incorporation, Average” value came out at 19.0%.
In the case of DVTIVASHGRVEIQGQTLRWWYPVPGTGEEVY, the “% Deuterium incorporation, Average” value was determined as 16.6%.
Consider EIATSTL, for which the “% Deuterium incorporation, Average” value was 59.2%.
On to EIYLPFVHY, for which the “% Deuterium incorporation, Average” value was 0.7%.
Regarding ERAIKSSDPSS, the “% Deuterium incorporation, Average” value came to 103.4%.
Take FCRPYPVA: the “% Deuterium incorporation, Average” value was determined as 21.1%.
As to FCRPYPVAT, the “% Deuterium incorporation, Average” value is 4.6%.
Take FCRPYPVATVGIPERIDF: the “% Deuterium incorporation, Average” value is reported as 5.0%.
Regarding FLKGRACSSPHF, the “% Deuterium incorporation, Average” value came out at 26.5%.
For the substance FSTLPTNPGHQVDF, the “% Deuterium incorporation, Average” value amounted to 50.7%.
With GQTTSTSADGDDSTVSSRQTSKVDL, the “% Deuterium incorporation, Average” value was 102.4%.
With HCEWPSAESPKPQDF, the “% Deuterium incorporation, Average” value was 58.4%.
As for HCEWPSAESPKPQDFPAM, the “% Deuterium incorporation, Average” value is 59.9%.
HDSPRSDTPNF: the “% Deuterium incorporation, Average” value is given as 91.2%.
On to IATSTLLRPDYFSTLPTNPGHQVDF, for which the “% Deuterium incorporation, Average” value is on record as 31.3%.
Turning to IDAVGEL, the “% Deuterium incorporation, Average” value is 5.7%.
The figure for IDILGNYPTL is 20.4%; for IDSGDFSPTL it is 36.2%.
Consider IDSGDFSPTLIL, for which the “% Deuterium incorporation, Average” value came to 26.0%.
The figure for IEDERAIKSSDPSS is 101.2%; for IEDERAIKSSDPSSV it is 101.6%; for IEDERAIKSSDPSSVS it is 106.2%.
IEDERAIKSSDPSSVSIRSVPYSSF: the “% Deuterium incorporation, Average” value is 100.4%.
IEVQRNGGAL: the “% Deuterium incorporation, Average” value came to 28.7%.
Turning to IEVQRNGGALRRDLG, the “% Deuterium incorporation, Average” value turned out to be 58.5%.
In the case of IGCKDLAVIPAEQQLKKGPSPTPIEG, the “% Deuterium incorporation, Average” value was determined as 24.8%.
Regarding IGWDSINEPGEGL, the “% Deuterium incorporation, Average” value is given as 4.5%.
In the case of IGWDSINEPGEGLIGCKDL, the “% Deuterium incorporation, Average” value was 4.5%.
Regarding IIDGKNIQD, the “% Deuterium incorporation, Average” value is on record as 14.1%.
Consider IIDGKNIQDFLQDHF, for which the “% Deuterium incorporation, Average” value was found to be 7.4%.
As to IKSSDPSS, the “% Deuterium incorporation, Average” value was 106.2%.
Turning to IKSSDPSSVSIRSVPYSSF, the “% Deuterium incorporation, Average” value turned out to be 106.5%.
As to ILDGSRAVAA, the “% Deuterium incorporation, Average” value came out at 26.4%.
ILDGSRAVAAF: the “% Deuterium incorporation, Average” value turned out to be 24.1%.
Regarding ILGNYPTL, the “% Deuterium incorporation, Average” value turned out to be 27.3%.
The figure for INKPLNL is 46.8%; for INKPLNLDDGSADL it is 26.9%; for INKPLNLDDGSADLHL it is 21.9%.
As to IQAPVLRQPPKLPES, the “% Deuterium incorporation, Average” value was 35.7%.
The value for IQAPVLRQPPKLPESF was 36.0%; that for IQAPVLRQPPKLPESFL was 31.8%.
With IRKKYWSIVQAV, the “% Deuterium incorporation, Average” value stood at 45.4%.
On to IYLPFVHY, for which the “% Deuterium incorporation, Average” value amounted to 2.9%.
The figure for IYLPFVHYAASL is 21.4%; for KDLAVIPAEQQLKKGPSPTPIEG it is 24.0%; for KGRACSSPHFYDGLTL it is 28.7%.
The value for KKAYGYVDGGRGEGDYSSQQKAMD was 29.0%; that for KKGPSPTPIEG was 6.7%; that for KQDTIDILGNYPTL was 22.4%.
The value for KYAVRVRADDIANE was 12.4%; that for LAVIPAEQQLKKGPSPTPIEG was 28.2%; that for LAVIPAEQQLKKGPSPTPIEGM was 28.2%.
On to LAYSSRIRLHHPESIHF, for which the “% Deuterium incorporation, Average” value is reported as 4.9%.
On to LDVCPEC, for which the “% Deuterium incorporation, Average” value was found to be 80.8%.
For the substance LKKGPSPTPIEG, the “% Deuterium incorporation, Average” value was 11.2%.
The figure for LRKCKEWGF is -8.6%.
For LRPDYFSTLPTNPGHQVDF, the “% Deuterium incorporation, Average” value is listed as 37.3%.
The figure for LRWWYPVPGTGE is 31.2%; for LRWWYPVPGTGEEV it is 23.5%; for LRWWYPVPGTGEEVY it is 19.1%.
Take LSGSAKHPNNQPSHIREGF: the “% Deuterium incorporation, Average” value is recorded as 54.3%.
Turning to LTVPMSGASKLRPSPSV, the “% Deuterium incorporation, Average” value is given as 86.0%.
For the substance LTVPMSGASKLRPSPSVIDSGD, the “% Deuterium incorporation, Average” value was found to be 65.2%.
With LTVPMSGASKLRPSPSVIDSGDFSPTL, the “% Deuterium incorporation, Average” value was 59.4%.
On to LVLRGVN, for which the “% Deuterium incorporation, Average” value was determined as 5.8%.
For the substance LVLRGVNL, the “% Deuterium incorporation, Average” value is on record as 7.5%.
Consider LVLRGVNLSGSAKHPNNQPSH, for which the “% Deuterium incorporation, Average” value is listed as 28.6%.
In the case of LVLRGVNLSGSAKHPNNQPSHIREGF, the “% Deuterium incorporation, Average” value was found to be 33.7%.
In the case of MRLGMGEAQ, the “% Deuterium incorporation, Average” value was 9.3%.
Regarding MRLGMGEAQDVQA, the “% Deuterium incorporation, Average” value is on record as 6.8%.
On to MRLGMGEAQDVQAWNFGPMGPYRGSRQTIDPKGVKL, for which the “% Deuterium incorporation, Average” value is listed as 19.3%.
MTKHWNWFNA: the “% Deuterium incorporation, Average” value turned out to be 29.9%.
As for NACDGPNCLN, the “% Deuterium incorporation, Average” value amounted to 19.4%.
